Test results taken from patent US20170326260A1 (CYTOMX THERAPEUTICS, published 2017).

Legend:
parental antibody C225v5 = test: ELISA; target antibody coated at 1 ug/ml, HRP anti-rabbit IgG, OD 450 nm
Procedure: (§1) The plates were washed with PBS/0.05% Tween 20 (wash butter) and then blocked with PBS/1% BSA for 1 hour at room temperature. The blocking buffer was removed, and the anti-AA antibodies 41, 58, 72 or 85, i.e., antibodies that bind activatable antibodies and/or conjugated activatable antibodies, were added and incubated for 1 hour. The plates were washed with wash buffer and incubated with 50 μl of 1 μg/ml of horseradish peroxidase conjugated donkey anti-rabbit IgG antibody for 1 hour. The plates were washed with wash buffer and 100 μl/well of TMB substrate was added. The reaction was stopped by the addition of 100 μl 1M HCl and the OD 450 nm was measured.

[1] = target: 3954-1204-c225v5 activatable anti-EGFR antibody activated with uPA; test: as above
Procedure: as §1

- binding result (parental antibody C225v5): no binding
- binding result [1]: no binding
B1: antibody 85-1 (antibody, V domains shown)
VH: QSLEESGGHLVTPGTPLTLTCKASGFSLSSYCMSWVRQAPGKGLEWIGIIGGICSTYYAAWAKGRFTISKTSTTVDLKIASPTTEDTATYFCARPAYNSDPIWGPGTLVTVSS
VL: QVLTQTPSPVSVAVGGTVTINCQASQSVYNNNYLSWYQQKPGQPPKVLIYDAATLASGVSSRFRGSGSGTQFTLTISDVQCDDAATYYCLGEFSCGSADCNAFGGGTEVVVKG
notes: also called clone 85
